The DeepSol protein solubility set

Assay: soluble on expression in E. coli; label from the status in PepcDB or PDB records

**Q.** For “MSVIRKEDGAGGKYMVELLKKHVFPKIASRAGEIALEDMEDSSDFCDDFAFTTDSYVVSPPIFRGGSIGSLSVCGTSNDLAVMGAKPEFMSLALVIQDGFPLGDFRRIMDDIRDSVELVNLSIITGDTKVVESNVGIIVNTAGIGRRSEELERNLEVLRELRDYPYRWVRDKGLKEGDAIIVSGSIAEHAAVIMAERMGFEVEFKSDVYPVWLFVREALRRGGVTAMKDPTRGGIAAALNEMAEKSGVGIKIFEERIPLKDEVRGLCELLGLDPLTMANEGKVVFGVHPEMADEVLKALHKAGQKEAEIIGYATKEFAEVVLETAVGTTRVVPQPISDPIPRVC”, which “soluble on expression in E. coli” value is on record?
**A.** Its value is “not soluble”.

**Q.** For “MKIVGIYLAAGKSRRTGPGLHKLYLPTGNTLLGNKALHTSLSSNLSDVIVVSNQPSWLLHYTQVERVHILSCEKSCLGQSYSLHCGLEKAESMNADGVVVMLADQPFITVKLLNSLIDSYEHLPQLDYVAASFQGIPQPPILFSKGIFPSLKKLKGDQGARSIFFDKSFQGKITVYSDAKLFYDVNTIEDYNVIKNSLLLEHHHHHH”, which “soluble on expression in E. coli” value is on record?
**A.** Its value is “not soluble”.

**Q.** With “MAHHHHHHMGNGASVGENRHSQLFQQGYKSLQEGRYTYAEIYYDQAIERHEGHSFWTRLDDLIEWERRDKAGQKGTDAKQKTAYRDGGQEEAAFPEVRKDSLKEENEVNVEMGEAAGVGGSGKIEIPLDSRLADVVDYLVLRADIAESYMAEGRYEEATPHMDFLSSHTRVMLKFLQIARMTKAEESANSSNPLEGSTADAGADNAGGGNRRAHQGFMMVSDVERDSILDCFEQFLRMHWVSAMANSVFIVSERFKKGKSEKKHKKELDTAVVACAKIQEELYNVAKRRARSLSNSVVLSFLEGIMEELDAESSTTSITNERMGTANGKTRTNTLFEEQNNRSTGNRSANEIDMLTDRDECPIKVHLQMVYDRRSLCREVPAPQQAPTLRYITWIDDEIRRVVPGTNYNLEIQCGMVDEKRKKQLQKRSLKFAAQRNCNYNDRVLLGKSFDEENALLLFPVFLIQADVQFELGAATKGINALDIVDKLSTQLYGVGSLERQSIMRSVMESRKRGGSLFMMFED” as the sequence, how does the “soluble on expression in E. coli” value read?
**A.** Its value is “soluble”.

**Q.** Which “soluble on expression in E. coli” value does the source give for “MHAIILTMRVGIVGFGNMGQAFALCFSKKLGKENIIVTDKVQEKRNLATEMGIAFASDVKFLADNSDVVLVAVKPKDSQEVLQKLKDYKGIILSIMAGVSIEKMEKILGKDKKIVRVMPNVNVAVGSGVMAITDNGNLSEEERSKVEELLLSCGTLYRIEERLFDAFTALAGSGPAFVFSFIDALALAGVHQGFSYEQALRIALDTVMGSAKLLKEFQVNPNELIAKVTSPGGTTIEGIKYLEEKGFKGTVMECINRTSQKAKKLLEHHHHHH” here?
**A.** Its value is “not soluble”.

**Q.** For “MYSGVQIRTGSNPKIRRNKIWGGQNGGILVYNSGLGCIEDNEIFDNAMAGVWIKTDSNPTLRRNKIHDGRDGGICIFNGGRGLLEENDIFRNAQAGVLISTNSHPILRKNRIFDGFAAGIEITNHATATLEGNQIFNNRFGGLFLASGVNVTMKDNKIMNNQDAIEKAVSRGQCLYKISSYTSYPMHDFYRCHTCNTTDRNAICVNCIKKCHQGHDVEFIRHDRFFCDCGAGTLSNPCTLAGEPTHDTDTLYDSAPPIESNTLQHN”, which “soluble on expression in E. coli” value is on record?
**A.** Its value is “soluble”.

**Q.** For “MGTFTATYFLKNAFWDKRGLWTATLAVAYFARCWESAGYNKAEMMKGHSKMYADRLKQLPAHTDAWKY”, which “soluble on expression in E. coli” value is on record?
**A.** Its value is “not soluble”.

**Q.** With “MKSPAPSRPQKMALIPACIFLCFAALSVQAEETPVTPQPPDILLGPLFNDVQNAKLFPDQKTFADAVPNSDPLMILADYRMQQNQSGFDLRHFVNVNFTLPKEGEKYVPPEGQSLREHIDGLWPVLTRSTENTEKWDSLLPLPEPYVVPGGRFREVYYWDSYFTMLGLAESGHWDKVADMVANFAHEIDTYGHIPNGNRSYYLSRSQPPFFALMVELLAQHEGDAALKQYLPQMQKEYAYWMDGVENLQAGQQEKRVVKLQDGTLLNRYWDDRDTPRPESWVEDIATAKSNPNRPATEIYRDLRSAAASGWDFSSRWMDNPQQLNTLRTTSIVPVDLNSLMFKMEKILARASKAAGDNAMANQYETLANARQKGIEKYLWNDQQGWYADYDLKSHKVRNQLTAAALFPLYVNAAAKDRANKMATATKTHLLQPGGLNTTSVKSGQQWDAPNGWAPLQWVATEGLQNYGQKEVAMDISWHFLTNVQHTYDREKKLVEKYDVSTTGTGGGGGEYPLQDGFGWTNGVTLKMLDLICPKEQPCDNVPATRPTVKSATTQPSTKEAQPTP” as the sequence, how does the “soluble on expression in E. coli” value read?
**A.** Its value is “not soluble”.

**Q.** With “MPVRASIEPLTWENAFFGVNSAIVRITSEAPLLTPDALAPWSRVQAKIAASNTGELDALQQLGFSLVEGEVDLALPVNNVSDSGAVVAQETDIPALRQLASAAFAQSRFRAPWYAPDASGRFYAQWIENAVRGTFDHQCLILRAASGDIRGYVSLRELNATDARIGLLAGRGAGAELMQTALNWAYARGKTTLRVATQMGNTAALKRYIQSGANVESTAYWLYR” as the sequence, how does the “soluble on expression in E. coli” value read?
**A.** Its value is “soluble”.

**Q.** For “MKTITQQYLTGERALFKAHDLEIDNTTFADGESPLKESRNVTLKQPIFKWKYPLWYSQHVTVDQGLFETMSRSGIWYTKDITITNSTLQAPKLFRRASQVKLAHVHFSDAEETLWNCQDITLNDVQAAGDYFGMNSQNIRIDGFNLVGNYAFDGAKNVEIHHATLMTKDALWNCENVTVYDSQIIGEYLGWNSKNIRFVNCTIESDQGLCYMDNVKLENCTLLNTDLAFEYCRNIDADVVSTIDSVKNPLSGRIHAQAIGEIIMDDPEVDPHQTLISVDHESRAPHAV”, which “soluble on expression in E. coli” value is on record?
**A.** Its value is “not soluble”.

**Q.** Which “soluble on expression in E. coli” value does the source give for “MSLPRGLELLIAQTILQGFDAQYGRFLEVTSGAQQRFEQADWHAVQQAMKNRIHLYDHHVGLVVEQLRCITNGQSTDAAFLLRVKEHYTRLLPITRASRLRRAFLTPCTVGYLTTARLLPSGFLSLALSQSAAFVPFPPAGQRLSPRSRLGISTDARYQRPTAAPAWQNKSRDIHYIIRHLTETLGTDNLAESHLQVANELFYRNKAAWLVGKLITPSGTLPFLLPIHQTDDGELFIDTCLTTTAEASIVFGFARSYFMVYAPLPAALVEWLREILPGKTTAELYMAIGCQKHAKTESYREYLVYLQGCNEQFIEAPGIRGMVMLVFTLPGFDRVFKVIKDRFAPQKEMSAAHVRACYQLVKEHDRVGRMADTQEFENFVLEKRHISPALMELLLQEAAEKITDLGEQIVIRHLYIERRMVPLNIWLEQVEGQQLRDAIEEYGNAIRQLAAANIFPGDMLFKNFGVTRHGRVVFYDYDEICYMTEVNFRDIPPPRYPEDELASEPWYSVSPGDVFPEEFRHWLCADPRIGPLFEEMHADLFRADYWRALQNRIREGHVEDVYAYRRRQRFSVRYGEMLFEGHHHHHH” here?
**A.** The value was “not soluble”.

**Q.** For “MKIRVADEKELPMILQFLTEVKAYMDVVGITQWTKDYPSQGDIQEDITKKRLYLLVHEEMIFSMATFCMEQEQDFVWLKRFATSPNYIAKGYGSLLFHELEKRAVWEGRRKMYAQTNHTNHRMIRFFESKGFTKIHESLQMNRLDFGSFYLYVKELENQSIV”, which “soluble on expression in E. coli” value is on record?
**A.** The value was “soluble”.

**Q.** Which “soluble on expression in E. coli” value does the source give for “MGSDKIHHHHHHMIDLQEILANMNPNQKINYDRVMQQMAKVWEKESVRPSILMHVCCAPCSTYTLEYLTQFADITVYFANSNIHPKDEYHRRAYVTQQFVSEFNAKTGNTVQFLEADYVPNEYVRQVRGLEEEPEGGDRCRVCFDYRLDKTAQKAVELGFDYFASALTISPHKNSQTINDVGIDVQKVYTTKYLPSDFKKNNGYRRSVEMCEEYDIYRQCYCGCVYAAKMQGIDLVQVKKDAKAFMADKDLDNDFTHIRFSYRGDEM” here?
**A.** The value was “not soluble”.

**Q.** With “MVKLAEFSRTATFAWSHDKIPLLVSGTVSGTVDANFSTDSSLELWSLLAADSEKPIASLQVDSKFNDLDWSHNNKIIAGALDNGSLELYSTNEANNAINSMARFSNHSSSVKTVKFNAKQDNVLASGGNNGEIFIWDMNKCTESPSNYTPLTPGQSMSSVDEVISLAWNQSLAHVFASAGSSNFASIWDLKAKKEVIHLSYTSPNSGIKQQLSVVEWHPKNSTRVATATGSDNDPSILIWDLRNANTPLQTLNQGHQKGILSLDWCHQDEHLLLSSGRDNTVLLWNPESAEQLSQFPARGNWCFKTKFAPEAPDLFACASFDNKIEVQTLQNLTNTLDEQETETKQQESETDFWNNVSREESKEKPSVFHLQAPTWYGEPSPAAHWAFGGKLVQITPDGKGVSITNPKISG” as the sequence, how does the “soluble on expression in E. coli” value read?
**A.** The value was “soluble”.

**Q.** Which “soluble on expression in E. coli” value does the source give for “KEAIVFSQKTTIDQLHNSLNAASKTGNSNEVLQDPHIGDMYGSVTPLRPQVTRMLGKYAKEKEDMLSLRQVLANAERSYNQLMDRAAN” here?
**A.** Its value is “soluble”.

**Q.** Which “soluble on expression in E. coli” value does the source give for “MSKRLYQQIETLWDYLQLHQQPNVADLILVLGSNDVRVAEHAAKLYHQGLAPYVLFSGGFGRFTQGVFNHNEAETFAAIAKDAGVPEHAILLETQSTNSGENLHFSHQLLVQQARPAKRILLVQKPYMERRAYATFMQQWPESVESVQVTSPAGSFFDYLTSELTSDFVLNAMLGDFERIRDYPALGFQITQPIPEPVMQAYQALLPLKVNLEMSLEHHHHHH” here?
**A.** Its value is “not soluble”.

**Q.** With “MAHHHHHHMITDLLFKSQIIYNKKDILCARYILFYQHICKRGYKEAAPKVFNKKSSHTSRWIQRQISDRYVLRAKNDNYRSRAAYKLIELDNKYLFLKKNKIILDIGCYPGSWCQVILERTKNYKNKIIGIDKKIMDPIPNVYFIQGEIGKDNMNNIKNINYIDNMNNNSVDYKLKEILQDKKIDIILSDAAVPCIGNKIDDHLNSCELTLSITHFMEQYINIGGTYIVKMYLGSQTNNLKTYLKGMFQLVHTTKPKASRNESREIYLVCKNFLGRKKITEDVQIKGSFSSKEGYY” as the sequence, how does the “soluble on expression in E. coli” value read?
**A.** The value was “not soluble”.

**Q.** With “VYGDIWGFETDRYFTKDDFNADGSYKEGIASQKKLEQDGFVYGPGDIKFKDLNNDKEINGGEGTVKDHGDLKVIGNTTPRYQYGFRLGGEWKGIDIDMFFQGVGKCDAWTQSAFVMPMMRGADAIYANQANYWTDENPDPNADFPRMWPGNAGKGTVSVLDLGNHNFYPQSKYLVNMAYLRFKNLTIGYTLPKDWTRKVYMDKVRVYFSANNICELINKSNAPVDPEVNTSEAIANGGSSDYGNGTWGRVDPMYRTVSFGLQVTF” as the sequence, how does the “soluble on expression in E. coli” value read?
**A.** The value was “not soluble”.

**Q.** Which “soluble on expression in E. coli” value does the source give for “MSPAWPLRPGQKVRVEFYKYPEEALHYFWEAEVVEVRPEGVLTLLPQGGVFHHVGKGRSLVLDHDAYVAFFPGAWYSGGPDVREGRVLEYYWNVQTPALWTGEAFRQYDLELDVKCRADHTCEVFDREEFLAKRPLYPRAWVEEAERAVEAVFRHMREGRWPVLPPGKPLPWMERI” here?
**A.** Its value is “soluble”.

**Q.** Which “soluble on expression in E. coli” value does the source give for “MIQKQHESKLEVGQTFPVTIKRLGINGEGVGYFKRQVVFIPGALPGEEVVAETTKIQRGFAEAKVKKVRKASPHRVKAPCPVYEECGGCQLQHLDYKEQLNQKRDIVVQAFEKYMKNSMEEKIRPTLGMENPWHYRNKSQLQVGRKDEKVITGLYKQNSHQLIDIAHCMIQHKATNEATKVVRRILEKLNVSIYNEKKQKGLVRTIVTRTAVQTGEVQVTLITTKEELPNKEQFIAEVQKQMPAVKSIMQNVNWRKTSVIFGDKTFKLAGKEVIQETLGDLSFELSARAFFQLNPEQTVVLYNEAKKAAALTGNEKIVDAYCGVGTIGLWLANDAAEVRGMDVIPEAIADARKNAKRHGFTNTKYEAGKAEQWLPKWVKEGWRPDVIVVDPPRTGCDDKLLETILKVKPKQVVYVSCNPSSLARDVQALMKSYEVEYVQPVDMFPHTAHVENVVKLTLK” here?
**A.** Its value is “not soluble”.

**Q.** Which “soluble on expression in E. coli” value does the source give for “MELKDGESAGNAENDVEIENPEKSEKAEILQSLDKSLGKSTEESPEAKNLRYFKTKKIRFGPIEYQIVTQNINGPCPLIALINALVLKGKLTIPSSYVVTSTNLLNLLTNVILARAPPENDEKLKETFEANLGDVMNIMETLVNGLDVNVKFSAVDTFEFTPALSLFDLVSVNLYHVWLPDPQFTVLYDLIRNLNYNELVEKMCGDQSTETELLRTFYDESISQITFHGLASLMERMKDGELAVVFHNNHFSTILKRRDEIFKLVSDEGLCDEPNIVWETFSSVDGDCIFVNGDFGNFKPITPPTTHPSPESFEKLQISDNSPIEQGIEAVEHTSAHHSAPVSPQHRAPAPPAPQTARAPPETSPTRNSGAGGKSCLIM” here?
**A.** Its value is “soluble”.
